This is an account of results in patent publication US20180284123A1 (CALIFORNIA INSTITUTE OF TECHNOLOGY, published 2018).

In experiment [1] the target is T1, His6-tagged human KRas Isoform 4B (residues 1-169) (human, UniProt P01116-2 1-169).
T1 construct: Expressed in E. coli BL21(DE3), purified on Ni-NTA; also called KRas protein; WT KRas protein; not shown: His6 tag from the PQE80 vector
Briefly: multi-well sandwich ELISA; ligand on Neutravidin plate, KRas 0-300 µM; footnote b: poorly resolved. Here is the method: A 96-well Pierce Neutravidin Plate was washed with binding buffer (3×5 minutes at RT) before loading plate with a 1 μM solution of either blank (biotin-PEG₅-NHAc) (singly) or biotinylated PCC ligand (in triplicate). The plate incubated for two hours before washing with binding buffer (3×5 minutes). Blocking buffer was added to each well and the plate blocked for one hour before undergoing washing with binding buffer (3×5 minutes). Each well was loaded with either binding buffer or KRas solution (0→300 μM), and the plate was incubated for 30 minutes. Plate washing with binding buffer (3×5 minutes) preceded incubating the plate with a (1000:1) dilution of 1° antibody (ab) rabbit anti-Ras (CST #3965) in ab buffer for thirty minutes. The plate was washed with binding buffer (3×5 minutes), loaded with a (2000:1) dilution of 2° ab goat anti-rabbit, HRP-linked ab (CST #7074) in ab buffer, and incubated for an additional thirty minutes. The plate was rinsed with binding buffer (3×5 minutes), TBS (1×5 minutes), loaded with a (1:1) mixture of TMB Peroxidase Solution and TMB Peroxidase Solution B, and developed with occasional agitation for 8-12 minutes. After quenching the enzymatic reaction with 1M H₂SO_{4(aq)} (100 μL) the plate was read at λ=450 nm within ten minutes. The data was double background corrected using the ab only absorbance and the dummy ligand absorbance, plotted using Prism GraphPad 7 (Sigmoidal 4PL mode with the Hill coefficient set=1), and an EC₅₀ value was calculated.
(In general: In an ELISA, binding on a coated surface is turned into a signal by an enzyme label.)

The target in experiment [2] is T1, His6-tagged human KRas Isoform 4B …. Briefly: cell-based or functional assay.
The target is the same in experiment [3]. Put plainly: B-RAP surface immunofluorescence assay; ligand on barcode via SAC-DNA, KRas titrated 0-400 µM. Here is the method:
After extraction the data is background corrected. The background signal arises from (a) non-specific binding of the primary and secondary antibodies (independent of [KRas]), but can vary across different barcode stripes), and (b) non-specific binding of KRas protein ([KRas] dependent). Background (a) was assessed by measuring the average signal in the null protein well for each stripe. Background (b) was assessed by measuring the average fluorescence for the dummy ligand (Biotin* probe) that was in each well. The background subtracted data was then graphed in Graphpad Prism 7 and fitted to a sigmoidal curve (Hill coefficient=1).
A pre-fabricated PDMS template was aligned onto the DNA barcode microchip, and the microchip was taped into a 10 cm petri dish. The wells on the platform were wet with 50 μL PBST before filling with blocking buffer and placing into a 37° C. incubator for 1 hr. Concurrently, 40 μL 1% BSA in PBS solutions containing 750 nM of a SAC-DNA conjugate and 3.75 μM of one biotinylated PCC ligand or biotin-A₂₀-Cy3 blank were prepared for each SAC-DNA conjugate. The biotinylated ligands were allowed to complex with the SAC protein for one hour before pooling the SAC-DNA-ligand solutions (final [SAC-DNA-ligand conjugates]=50 nM). The blocking buffer was aspirated and each well was loaded with the SAC-DNA-ligand conjugates cocktail for hybridization with the DNA barcode at 37° C. for one hour. The wells were washed with PBST (3×) before loading serially diluted solutions of KRas protein in protein buffer (0 to 400 μM). After shaking at RT for one hour, the wells were rinsed with PBST (5×), making sure to pipet up/down with the first addition of PB ST. A (100:1) dilution of CST rabbit anti-Ras Ab (#39655) in 1° ab buffer was added to each well before shaking at RT for one hour. After rinsing the wells with PBST (3×), the wells were loaded with a (200:1) dilution of Abcam goat anti-rabbit-Alexafluor 647 linked ab (ab150079) in 2° ab buffer before shaking at RT for one hour. A final rinse of the wells with PBST (3×) proceeded peeling off the PDMS slab from the barcode microchip and dipping the barcode into the following solutions: PBS, (1:1) PBS: MQ H₂O, MQ H₂O (2×). After being spun dry, the barcode was read on the Genepix (635 nm, PMT 600, PWR 40% (60 W); 532 nm, PMT 450, PWR 15% (23 W)).

Experiment [4] has the same target. Put plainly: barcoded rapid assay microchip, fitted curves of FIG. 6B (Hill coefficient 1), triplicate.

Ends that are not written are not given here.

B1: L2 (peptide)
peptide: EGVPV
modifications: triazole (positions not given here); not fully specified (bridges); also: macrocycle closed by 1,4-triazole, propargylglycine click handle, other ring residues not given here
notes: also called EGVPV
As a reminder, the EC50 is the concentration giving half of the maximal effect. Lower therefore signals an effect from little substance. Consider B1, for which the EC50 in experiment [1] is 33.2 µM; in experiment [3], 3.31 µM; in experiment [4] it was 8.19 µM. In addition, the “IC50 of the intrinsic GTPase activity of KRas (GTPase-Glo, 10 µM KRas, four-hour incubation)” value in experiment [2] was determined as 24 µM. Also, the “IC50 of the intrinsic GTPase enzymatic activity of KRas” value in experiment [2] was about 20 µM.
